From the nanobody polyreactivity screen of Harvey et al. (2022)

Assay: yeast display, Sf9 membrane polyspecificity reagent, FACS + sequencing; frameworks hold sequencing errors
How it was run: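 Galactose-induced (36–48 hours) yeast carrying a synthetic nanobody display library were exposed to 10% biotinylated, detergent-solubilized Sf9 membrane reagent at 4 °C for 1 hour. FACS followed streptavidin microbead enrichment, using low and high (top ~1%) gates for expression (anti-HA) and reagent binding (streptavidin). Colony PCR, MiSeq 2 × 250 sequencing and CDR-length filtering followed. Labels for polyreactivity reflect the gate of origin.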

QVQIVESGGGLVQAGGSLRLSCSASGNIFYKYAMGWFRQAPGKERELVAAITWRVVRTYYADSVKGRFTISRDNAKNTVYLQMNSLKPEDTAVYYCAALSRQSGDYWGQGTQLTVSS
polyreactivity (PSR sort gate): high polyreactivity

QVQLVESGGGLVQAGGSLRLSCAASGITFPAYAMGWYRQAPGKERELVAAISRRGGSTYYADSVKGRFTISRDYAKNTVYLQMNSLKPEDTAVYYCNADIKQRSDRYDYWGQGTQVTVSS
polyreactivity (PSR sort gate): high polyreactivity

QVQLVESGGGIVQAGGRLRLSCAASGSIFLQYTMGWYRQAPGKERELVAAITESDGSTYYADSVKGRFTISRDNAKNTVYLQMNSLKPEDTAVYYCAADVVYFKYWDKYDYWGQGTQVTLSS
polyreactivity (PSR sort gate): low polyreactivity

QVQRVESGGGLVQARGSLRLSCAASGRIFYRYAMGWNIQAPGKERELVAAISGSVGSTYADSVKGRFTISRDNAKNTVYLQMNSLKPEDTAVYYCARETYRRYGAYDYWGQGTQVSVSS
polyreactivity (PSR sort gate): low polyreactivity

QVQLVESGGGLVQAGGSLRLICAASGIIFYGYGMGWYRQARGKERELVAAITRSGGRTYYADSVKGRFTISRDNAKNTVYLQMNSLKPEDTAVYYCAAKRRTGGNGYWGQGTQVTVSS
polyreactivity (PSR sort gate): high polyreactivity

QVQLVESGGGLVQAGGSLRLSCAASGRIFTTNVMGWYRQAPGKERELVAAISWSGGNTYYADSVKGRFTISRDNAKNTVYLQMNSLKPEDTAVYYCNAVGTIREGDSWGQGTQVTVSS
polyreactivity (PSR sort gate): low polyreactivity

QVQLVESGGGLVQAGGSLRLSCAASGRIFGPYTMGWYRPAPGKERELVARISRRGGSTYYADSVKGRFTISRDNAKNTVYLQMNSLKPEDTAVYYCAAWFTSTRPYDYWGQGTQVTVSS
polyreactivity (PSR sort gate): high polyreactivity

QVQLVESGGGLDQAGRSLRLSFAASGRTFDLYPMGWYRQAPGKERELVAAITNGETYADSVKGRFTISLDDAKNTVYLQMNSLKPEDTAVYYCAKYDPWFWRAEDYWGQGTQVTVSS
polyreactivity (PSR sort gate): low polyreactivity

QDQLVESGGGLVQAGASLRLSCAASGFIFSYYAMGWYRQAPGKERELVAAITWSGSSTYYADSVKGRFTISRDNAKNTVYLQMNSLKPEDTAVYYCPASSGGFRHYYYTYNYWGQGTQVTVSS
polyreactivity (PSR sort gate): high polyreactivity

QVQLVESGGGLVQAGGSLRLSCAASGSIFYNAMGWYRQAPGKERELVASISWSGGTSTYYADSVKGRFTISRDNAKNTVYLQMNSLKPEDTAVYYCAKASRYSSYWMYYWGQGTQVTVSS
polyreactivity (PSR sort gate): high polyreactivity

QVQLVESGGGLVQAGGSLRLSCAASGFTFGVYALGGYRQAPGKEREFVAAISRSGSSTYYADSVKGRFTISRDNAKNTVYLQMNSLKPEDTAVYYCAKRSGNRYSFDYWGQGTQVTVSS
polyreactivity (PSR sort gate): high polyreactivity

QVQLVESGGGLVQAGGSLRLSCAASGLTFGSNAMGWYRQAPGKERELVAAITSSGGRTYYADSVKGRFTISRDNAKNTVYLQMNSLKPEVTAVYYCAAVYQILLYFPGRYDYWGQGTQVTVSS
polyreactivity (PSR sort gate): low polyreactivity

QVQLVDSGGGIVQAGGSLRLSCAASGSTFVANAMGWYRQAPGKECEFVAAISRSGVRTYYADSVKGRFTISRDNAKNTVYLQMNSLKPEDTAVYYCAADGYWWTYSRYDYWGQGTQVTVSS
polyreactivity (PSR sort gate): low polyreactivity

QVQLVESGGGLVQAGGSLRLSCAASGIIFQYYAMGGYRQAPGKERELVAAISWSGGSTYYADSVKGRFTISRDNAKNTVYLQMNSLKPEDTAVYYCAARSRSFWPYEGDYWGQGTQVTVSS
polyreactivity (PSR sort gate): low polyreactivity

QDQLVESGGGLVQAGGSLRLSCAAYGYTFDDNAMGWFRQAPGKERELVAAINWDGASTYADSVKGRFTISRDNAKNTVYLQMNSLKPEDTAVYYCTASGKDIFNYVYQGYDYCGQGTQVTVSS
polyreactivity (PSR sort gate): low polyreactivity

QVQLVESGGGLVQAGGSLRLSCAASGSIFVGYAMGWYRQARGKERELVAAITGSGTRTYYADSVKGRFTISRDNAKNTVYLQMNSLKPEDTAVYYCAAVTYHGNPSEYYPDTVGFYYWGQGTQVTVSS
polyreactivity (PSR sort gate): low polyreactivity

QVQLVESGGGLVQAGGSLRLSCAASGRTFGRYAMGGYRQAPGKERELVAAINSGGSTYYADSVKGRFTISRDNAKNTVYLQMNSLKPEDTAVYYCAADWYYWGFIFDYWGQGTQVTVSS
polyreactivity (PSR sort gate): high polyreactivity

QVQLVESGGGLVQAGGSLRLSCAASGRIFGAYAMGWYRQAPGKERELVAAITSGGSTYYADSVKGRFTISRDNAKNTVYLQMNSLKPEDTAVYYCNALRRSQPWKYDYWGQGTQVTVSS
polyreactivity (PSR sort gate): low polyreactivity

QVQLVESGGGLVQAGGSLRLSCAASGIIFYSNAMGWARQAPGKETELVAGISKSGGSTYYADSVKGRFTISRDNAQNTVYLQMHSLKPEDTAVYYCAVRGGGRYRSWGYDYWGQGTQVTVSS
polyreactivity (PSR sort gate): high polyreactivity

QVQLVVSGGGLVQAGGSLRLSCAASGYIFYANAMGWYRQAPGKEWELVAAITQSGGRTYYADSVKGRFTISRDNAKNTVYLQMNSLKPEDTAVYYCAAQPWRALGYYYWGQGTQVTVSS
polyreactivity (PSR sort gate): high polyreactivity

QVQLVESGGGLVQAGGSLRLSCAASGFIFYYAMGWYRPAPGKERELVAGITESDGSTNYADSVKGRFTISRDNAKNTVYLQMNSLKPEDTAVYYCAKDASSLRFDYWGQGTQVTVSS
polyreactivity (PSR sort gate): low polyreactivity

QVQLVESGGGLVQAGGSLRLSCAASGRTFGVYAMGWYRQAPGKERELVAAISKSDGSTYYADSVKGRFTISRDNAKNTVYLQMNSLKPEDTAVYYCATVTRHQRDTQYDYWGQGTQVTVSS
polyreactivity (PSR sort gate): low polyreactivity

QVQLVESGGGLVQAGGSLRLSCAASGRIFHQYAMGWYRQAPGKERELVAAITTRGTSTYYADSVKGRFTISRDNAKNTVYLQMNSLKPEDTAVYYCAAKFFGSVGHVAGDYWGQGTQVTVSS
polyreactivity (PSR sort gate): high polyreactivity

QVQLVESGGGLVQAGGSLRLSCAASGRTFVIYTMGWYRQAPGKERELVAAITQRGGITYYADSVKGRFTISRDNAKNTVYLQMNSLKPEDTAVYYCNSGRTYRRLGDYWGQGTQVTVSS
polyreactivity (PSR sort gate): high polyreactivity

QVHLVESGGGLVQAGGSLRLSCAASGSIFGDNTMGWYRQAPGKERELVAAISQSSGTSTYYADSVKGRFTISRDNAKNTVYFQMNSLKPEDTAVYYCAKDPHGSDFGYWGQVTQVTVSS
polyreactivity (PSR sort gate): low polyreactivity

QVQLVESGGGLVQAGGSLRLSGAASGRIFYSNAMGWYRQAHGKERELVAAITRAGSTNYADSVKGSFTISRDIAKNTVYLQMNSLKPDDTAVYDCAATYGCSVFEYDYWGQGTQVTVSS
polyreactivity (PSR sort gate): low polyreactivity

QVQLVESGGGLVQAGGSLRLSCAASGRTFVSYVMGWYRQAPGKERELVAAIRRRGGRTYYADSVKGRFTISRDNAKNTVYLQMNSLKPEDTAVYYCAAAQPGTNAYRVGSWGQGTQVTVSS
polyreactivity (PSR sort gate): high polyreactivity

QVQLVESGGGLDQARGSLRLSCAASGFIFGRYAMGWYRQAPGKVRELVAAISRSGGSTHYADSVKGRFTISRDNAKNTVYLQMNSLKPEDTAVYYCNTYLTIWGYFYGYDYWGQGTQVTVSS
polyreactivity (PSR sort gate): high polyreactivity

QVQLVESGGGLVQAGGSLRISCAPSGFTFIYYDMGWYRQAPGKERELVAAINRGGNTYYADSVKGRFTISRDNAKNTVFLLMNSLKPEDTAVYYCNARSYRRGTWYNSWGQGTKVTVSS
polyreactivity (PSR sort gate): high polyreactivity

QVQLVESAGGLVQAGGSLRLSCAASGLILHINTMGWYRQAPGKERELVAAISWSGDSTYYADSVKGRFTISRDNAKNTVYLQMNSLKPDDTAVYYCTTDYGHTYLYGYDYWGQGTQVTVSS
polyreactivity (PSR sort gate): high polyreactivity

QVQLVESGGGLVQAGGSLRLTCAASGRTFNDYAMGWYRQAPGKEMELVAGITWRGGSTYYADSVKGRFTISRHNAKNTVYLQMNSLKPEDTAVYYCAVKRPWRKMGYWGQGTQVTVSS
polyreactivity (PSR sort gate): high polyreactivity

HVQLVESGGGLVQAGGSLRLSCAASGRTFLGNAMGWYRQAPGKERQLVAVITGSGARTYYADSEKGRFTISRDNAKNTVYLQMNSLKPEDTAVYYCAAAGFSGQYRSYYWGQGTQVTVSS
polyreactivity (PSR sort gate): high polyreactivity

QVQLVESGGGLVQAGGSLRLSCAASGRIFLYYTMGWYRQAPGKERELVATIRSGDSTNYADSVKGRFTISRDNAKNTVYLQMNSLKPEDTAVYYCAADWDIFQQGANGAPYDYWGQGTQVTVSS
polyreactivity (PSR sort gate): low polyreactivity

QVQLVESGGGLVKAGGSLRISCAASGRIFGYNAMGWYRQAPGKERELVAVISTSGTITYYADSVKGRFTISRDNAKNTVYLQMNSLKPEDTAVYYCAARYYQRANGFGYWGQGTQVTVSS
polyreactivity (PSR sort gate): low polyreactivity

QVQLLESGGGLVQAGGSLRLSCAASGRIFYVNAMGWYRQSPGKERELVAGIDDGVTTYYADSVKGRFTISRDNAKNTVYLLMNRLKPEDTAVYYCAAETSTNPEAYEYWGQGTQVTVSS
polyreactivity (PSR sort gate): low polyreactivity

QVQLVESGGGLVQAGGSLRLSCAASGSIFPSYAMGWYRQAPGKERELVAAINWDGGSTFYADSVKGRFTISRDNAKNTVYLQMKSLKPEDTAVYYCAAPDNYGGVGGITFWRMDYWGQGTQVTVSS
polyreactivity (PSR sort gate): low polyreactivity

QVQLVESGGGLVQAGGSLRLSCADSGSTFWYDMGWYRQAPGKERELVAAISDAGSTYYADSVKGRFTISRDNAKITVYLQMNSLKPEDTGFYFCAADGVYWRWYLYTFWMDYWGQGTQVTVSS
polyreactivity (PSR sort gate): low polyreactivity

QVQLVESGGGLVQAGGSLRLSCAASGSIIYAYAMGWYRQAPGKERELVAGIRDGGSTYYADSVKCRFTISRDNAKNTVYLQMNSLKPEDTAVYYCAAGPRIRDDYWGQGTQVTVSS
polyreactivity (PSR sort gate): low polyreactivity

QVQLVESGGGLVQAGGSLRLSCAASGRTFLLNAMGWYRQAPGKERELVAAMTRSGVITYYADSVKGRFTISRDNAKNTVYLQMNSLKPEDTAVYYCAARRDARSTEYGYWGQGTQVTVSS
polyreactivity (PSR sort gate): high polyreactivity

QVQLVESGGGLVQAGGSLRLSCAASGRTFGAYTMGWYRQAPGKERELVAAINWSGGDTYYADSVKGRFTISRDNAKNTVYLQMNSLKPEDTAVYYCNAEPRYGTYDYWGQGTQVTVSS
polyreactivity (PSR sort gate): low polyreactivity

QVQLVESGGGLVQAGGSLRLSCAASASTTYYAMGWYRQAPGKERELVAAISFSGGSTFYADSVKGRFTISRDNAKNTVYLQMNCLKPEDTGVYYCATQEGPHKLDPRGYYWGQGTQVTVSS
polyreactivity (PSR sort gate): low polyreactivity

QVQLVESGGGLVQAGGSLRLSCAASGSTFRINTMGWYRQAPGKERELVATITGSGGSTYYADSVKGRFTISRDNAKNTVYLQMNSLKPEDTAVYYCAAVGDQNEYDYWGQGTQVTVSS
polyreactivity (PSR sort gate): low polyreactivity

QVQLVESGGGLVQAGGSLRLSCAASGRTFVSYAMGWYRQAPGKETELVAAIDSSGTSTYYADSVKGRFTISRDNAKNTVYLQMNSLKPEDTAVYYCAKAWPDHWYSRYDYWGQGTQVTVSS
polyreactivity (PSR sort gate): low polyreactivity
